Test results: patent publication US20080207517A1 (INSTITUT PASTEUR, published 2008)
* marks the point of attachment. BODIPYFLEthylmaleimide = Cc1cc(C)n2c1C=C1C=CC(CCC(=O)NCCN3C(=O)CC(*)C3=O)=[N+]1[B-]2(F)F

T1: CC2 (WT) (murine, N-terminal acetyl group; C-terminal amide)
T1 construct: Forms a trimer at 10 uM in gel filtration; also called CC2 peptide; CC2 wild type
T1 peptide: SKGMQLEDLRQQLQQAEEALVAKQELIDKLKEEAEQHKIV


Tests used:
[1] = biological target: the molecule itself; test: gel filtration (Superdex 75), self-association
Protocol: The oligomeric states of peptides were determined by filtration as described in Traincard et al., 2003. In brief, 500 μl samples were loaded on a SUPERDEX™ 75 HR 10/30 column equilibrated in 50 mM Tris-HCl pH 8.0 containing 200 mM NaCl and 0.1 mM DDM, at a constant flow rate of 0.4 ml/min. The presence of the DDM detergent was added in the equilibrium buffer to minimize the adsorption in the column and to increase the peptide recovery. The column was calibrated in the same equilibrium buffer with blue dextran 2000 (void volume), dithioerythritol (total volume), bovine serum albumin (67 kDa, Rs=35.2 Å), ovalbumine (43 kDa, Rs=27.5 Å), chymotrypsinogen A (25 kDa, Rs=21.1 Å), ribonuclease A (13.7 kDa, Rs=16.4 Å), cytochrome C (12.4 kDa, Rs=17.7 Å) and aprotinin (6.5 KDa, Rs=13.5 Å).

[2] = biological target: T2, NEMO (NF-kB essential modulator), murine (murine, UniProt O88522 1-412); test: cell-based or functional assay
T2 sequence (O88522 other isoform, or with tags, fused parts or gaps): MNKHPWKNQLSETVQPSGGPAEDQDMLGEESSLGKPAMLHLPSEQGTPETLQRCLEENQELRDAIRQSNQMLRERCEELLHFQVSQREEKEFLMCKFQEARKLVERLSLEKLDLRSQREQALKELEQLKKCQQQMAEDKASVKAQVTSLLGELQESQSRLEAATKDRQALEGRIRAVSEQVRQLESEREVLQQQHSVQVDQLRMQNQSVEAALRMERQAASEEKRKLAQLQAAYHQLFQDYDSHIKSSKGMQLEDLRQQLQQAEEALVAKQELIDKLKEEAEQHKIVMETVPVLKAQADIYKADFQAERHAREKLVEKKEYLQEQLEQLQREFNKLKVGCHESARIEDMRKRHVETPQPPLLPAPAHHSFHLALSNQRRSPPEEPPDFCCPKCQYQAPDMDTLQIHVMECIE

CC2 (WT) [3] = biological target: T1, CC2 (WT); test: fluorescence anisotropy, 1 µM BODIPY-Ant-CC2 titrated with 1-125 µM CC2
Protocol: (§1) (A) Direct titration of BODIPY-Ant-CC2 (1 μM) with CC2 by fluorescence anitropy. The concentration of CC2 was determined by amino acid analysis. Anisotropy values of BODIPY-Ant-CC2 in milliunits (mA) were plotted against an increasing concentration of the CC2 peptide. […] The two dashed lines represent a stoichiometric titration and intersect at an CC2 concentration of […]. Given the 1 μM concentration of the BODIPY-Ant-CC2, this gives a complex stoechiometrie of 0.8. (B) Direct titration of BODIPY-Ant-LZ (0.1 μM) with CC2 by fluorescence anitropy. The anisotropy values of the BODIPY-Ant-LZ alone (white bar) or in the presence of the CC2 peptide (30 μM, grey bar; 100 μM, black bar) are given in milliunits (mA).
(§2) Anisotropy measurements were performed with a PTI […]™ fluorometer equipped with polarizers for the excitation and emission beams. This instrument uses a PMT in the L-configuration. […] Steady-state fluorescence anisotropy was expressed as millianisotropy (mA) and was calculated according to the equations: (1) A=(IVV−GIVH)/(IVV+2GIVH); (2) G=IHV/IHH.; where A is anisotropy, G is a correction factor for wavelength-dependent distortion and I is the fluorescence intensity component (subscript referring to the vertical and horizontal positioning at the excitation and emission polarizers, respectively). […]

CC2 (WT) [4] = biological target: T1, CC2 (WT); test: fluorescence anisotropy, 1 µM BODIPY-Ant-CC2 titrated with CC2
Protocol: as §1, §2

[5] = biological target: T2, NEMO (NF-kB essential modulator), murine; test: cell-based or functional assay; remark: listed apart in the source

| Binder | binding result [1] | IC 50 (inhibition of NF-κB activation pathway) [5] [µM] | further results |
| --- | --- | --- | --- |
| Ac-SKGMQLEDLRQQGQQAEEAGVAKQELGDKLKEEAEQHKIV-NH2 (As for CC2 (WT), the printed theoretical mass (3987.43 Da) fits residues 6-40 only; also called CC2 mutant) [CC2 (Mu)] | no binding (tested: 10 µM) | – | – |
| BODIPY-Ant-CC2 (WT) (Synthetic peptide; elutes as a monomer in gel filtration at 10 uM; also called Ant-CC2 BODIPY peptide) peptide: Ac-C(BODIPYFLEthylmaleimide)RQIKIWFQNRRMKWKKSKGMQLEDLRQQLQQAEEALVAKQELIDKLKEEAEQHKIV-NH2 | no binding (tested: 10 µM) | – | IC50 of inhibition of LPS-induced NF-κB activation (β-galactosidase reporter, 70Z3-C3 cells) [2]: 22 µM; fold reduction of LPS-induced NF-κB activation at 10 µM peptide (stringent β-galactosidase assay, 70Z3-C3 cells) [2]: 1.7 fold; Kd (CC2 (WT) [3]): 15.2 µM; stoichiometry (CC2 (WT) [4]): 0.8 |
| BODIPY-Ant-LZ (WT) (Synthetic peptide; elutes as a monomer in gel filtration at 10 uM) peptide: Ac-C(BODIPYFLEthylmaleimide)RQIKIWFQNRRMKWKKLKAQADIYKADFQAERHAREKLVEKKEYLQEQLEQLQREFNKL-NH2 | no binding (tested: 10 µM) | – | IC50 of inhibition of LPS-induced NF-κB activation (β-galactosidase reporter, 70Z3-C3 cells) [2]: 3 µM; fold reduction of LPS-induced NF-κB activation at 10 µM peptide (stringent β-galactosidase assay, 70Z3-C3 cells) [2]: 5.8 fold |
| BODIPY-Ant-LZ (Mu) (Two L to S mutations at d positions; also called BODIPY-Ant LZ mutant) peptide: Ac-C(BODIPYFLEthylmaleimide)RQIKIWFQNRRMKWKKLKAQADIYKADFQAERHAREKLVEKKEYSQEQLEQSQREFNKL-NH2 | no binding (tested: 10 µM) | – | – |
| Ac-C(BODIPYFLEthylmaleimide)YGRKKRRQRRRLKAQADIYKARFQAERHAREK-NH2 (SMILES CC[C@H](C)[C@H](NC(=O)[C@H](CC(=O)O)NC(=O)[C@H](C)NC(=O)[C@H](CCC(N)=O)NC(=O)[C@H](C)NC(=O)[C@H](CCCCN)NC(=O)[C@H](CC(C)C)NC(=O)[C@H](CCCNC(=N)N)NC(=O)[C@H](CCCNC(=N)N)NC(=O)[C@H](CCCNC(=N)N)NC(=O)[C@H](CCC(N)=O)NC(=O)[C@H](CCCNC(=N)N)NC(=O)[C@H](CCCNC(=N)N)NC(=O)[C@H](CCCCN)NC(=O)[C@H](CCCCN)NC(=O)[C@H](CCCNC(=N)N)NC(=O)CNC(=O)[C@H](Cc1ccc(O)cc1)NC(=O)[C@H](CSC1CC(=O)N(CCNC(=O)CCC2=[N+]3C(=Cc4c(C)cc(C)n4[B-]3(F)F)C=C2)C1=O)NC(C)=O)C(=O)N[C@@H](Cc1ccc(O)cc1)C(=O)N[C@@H](CCCCN)C(=O)N[C@@H](C)C(=O)N[C@@H](CCCNC(=N)N)C(=O)N[C@@H](Cc1ccccc1)C(=O)N[C@@H](CCC(N)=O)C(=O)N[C@@H](C)C(=O)N[C@@H](CCC(=O)O)C(=O)N[C@@H](CCCNC(=N)N)C(=O)N[C@@H](Cc1c[nH]cn1)C(=O)N[C@@H](C)C(=O)N[C@@H](CCCNC(=N)N)C(=O)N[C@@H](CCC(=O)O)C(=O)N[C@@H](CCCCN)C(N)=O) [BODIPY-TAT-NLM-DR] | – | 1 | – |
| Ac-C(BODIPYFLEthylmaleimide)RQIKIWFQNRRMKWKKLKAQADIYKARFQAERHAREK-NH2 (SMILES CC[C@H](C)[C@H](NC(=O)[C@H](CC(=O)O)NC(=O)[C@H](C)NC(=O)[C@H](CCC(N)=O)NC(=O)[C@H](C)NC(=O)[C@H](CCCCN)NC(=O)[C@H](CC(C)C)NC(=O)[C@H](CCCCN)NC(=O)[C@H](CCCCN)NC(=O)[C@H](Cc1c[nH]c2ccccc12)NC(=O)[C@H](CCCCN)NC(=O)[C@H](CCSC)NC(=O)[C@H](CCCNC(=N)N)NC(=O)[C@H](CCCNC(=N)N)NC(=O)[C@H](CC(N)=O)NC(=O)[C@H](CCC(N)=O)NC(=O)[C@H](Cc1ccccc1)NC(=O)[C@H](Cc1c[nH]c2ccccc12)NC(=O)[C@@H](NC(=O)[C@H](CCCCN)NC(=O)[C@@H](NC(=O)[C@H](CCC(N)=O)NC(=O)[C@H](CCCNC(=N)N)NC(=O)[C@H](CSC1CC(=O)N(CCNC(=O)CCC2=[N+]3C(=Cc4c(C)cc(C)n4[B-]3(F)F)C=C2)C1=O)NC(C)=O)[C@@H](C)CC)[C@@H](C)CC)C(=O)N[C@@H](Cc1ccc(O)cc1)C(=O)N[C@@H](CCCCN)C(=O)N[C@@H](C)C(=O)N[C@@H](CCCNC(=N)N)C(=O)N[C@@H](Cc1ccccc1)C(=O)N[C@@H](CCC(N)=O)C(=O)N[C@@H](C)C(=O)N[C@@H](CCC(=O)O)C(=O)N[C@@H](CCCNC(=N)N)C(=O)N[C@@H](Cc1c[nH]cn1)C(=O)N[C@@H](C)C(=O)N[C@@H](CCCNC(=N)N)C(=O)N[C@@H](CCC(=O)O)C(=O)N[C@@H](CCCCN)C(N)=O) [BODIPY-Ant-NLM-DR] | – | 1.1 | – |
| BODIPY-Ant-CC2 (Mu) (also called CC2 variant) peptide: Ac-C(BODIPYFLEthylmaleimide)RQIKIWFQNRRMKWKKSKGMQLEDLRQQGQQAEEAGVAKQELGDKLKEEAEQHKIV-NH2 | no binding (tested: 10 µM) | – | – |
| Ac-C(BODIPYFLEthylmaleimide)RRRRRRRLKAQADIYKARFQAERHAREK-NH2 (SMILES CC[C@H](C)[C@H](NC(=O)[C@H](CC(=O)O)NC(=O)[C@H](C)NC(=O)[C@H](CCC(N)=O)NC(=O)[C@H](C)NC(=O)[C@H](CCCCN)NC(=O)[C@H](CC(C)C)NC(=O)[C@H](CCCNC(=N)N)NC(=O)[C@H](CCCNC(=N)N)NC(=O)[C@H](CCCNC(=N)N)NC(=O)[C@H](CCCNC(=N)N)NC(=O)[C@H](CCCNC(=N)N)NC(=O)[C@H](CCCNC(=N)N)NC(=O)[C@H](CCCNC(=N)N)NC(=O)[C@H](CSC1CC(=O)N(CCNC(=O)CCC2=[N+]3C(=Cc4c(C)cc(C)n4[B-]3(F)F)C=C2)C1=O)NC(C)=O)C(=O)N[C@@H](Cc1ccc(O)cc1)C(=O)N[C@@H](CCCCN)C(=O)N[C@@H](C)C(=O)N[C@@H](CCCNC(=N)N)C(=O)N[C@@H](Cc1ccccc1)C(=O)N[C@@H](CCC(N)=O)C(=O)N[C@@H](C)C(=O)N[C@@H](CCC(=O)O)C(=O)N[C@@H](CCCNC(=N)N)C(=O)N[C@@H](Cc1c[nH]cn1)C(=O)N[C@@H](C)C(=O)N[C@@H](CCCNC(=N)N)C(=O)N[C@@H](CCC(=O)O)C(=O)N[C@@H](CCCCN)C(N)=O) [BODIPY-R7-NLM-DR] | – | 0.9 | – |
| Ac-C(BODIPYFLEthylmaleimide)RRRRRRRRRLKAQADIYKARFQAERHAREK-NH2 (SMILES CC[C@H](C)[C@H](NC(=O)[C@H](CC(=O)O)NC(=O)[C@H](C)NC(=O)[C@H](CCC(N)=O)NC(=O)[C@H](C)NC(=O)[C@H](CCCCN)NC(=O)[C@H](CC(C)C)NC(=O)[C@H](CCCNC(=N)N)NC(=O)[C@H](CCCNC(=N)N)NC(=O)[C@H](CCCNC(=N)N)NC(=O)[C@H](CCCNC(=N)N)NC(=O)[C@H](CCCNC(=N)N)NC(=O)[C@H](CCCNC(=N)N)NC(=O)[C@H](CCCNC(=N)N)NC(=O)[C@H](CCCNC(=N)N)NC(=O)[C@H](CCCNC(=N)N)NC(=O)[C@H](CSC1CC(=O)N(CCNC(=O)CCC2=[N+]3C(=Cc4c(C)cc(C)n4[B-]3(F)F)C=C2)C1=O)NC(C)=O)C(=O)N[C@@H](Cc1ccc(O)cc1)C(=O)N[C@@H](CCCCN)C(=O)N[C@@H](C)C(=O)N[C@@H](CCCNC(=N)N)C(=O)N[C@@H](Cc1ccccc1)C(=O)N[C@@H](CCC(N)=O)C(=O)N[C@@H](C)C(=O)N[C@@H](CCC(=O)O)C(=O)N[C@@H](CCCNC(=N)N)C(=O)N[C@@H](Cc1c[nH]cn1)C(=O)N[C@@H](C)C(=O)N[C@@H](CCCNC(=N)N)C(=O)N[C@@H](CCC(=O)O)C(=O)N[C@@H](CCCCN)C(N)=O) [BODIPY-R9-NLM-DR] | – | 0.9 | – |
